Experimental data as given in the supplement of paper PMC9170038.

Test system: MS2 coat protein
Test: apparent KD of MS2 coat protein; designed switch direction (-1 OFF switch, 1 ON switch): -1; higher = weaker reporter binding
Summary of the method: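 The apparent KD reported per design is the median over clusters of curve fits to normalised cluster fluorescence. The RNA switches were transcribed on Illumina chips by stalled E. coli RNA polymerase. SNAP-549-labelled MS2 coat protein was titrated from 0.7 or 1.5 nM, doubling up to 3 µM, in Tris-HCl pH 7.5 buffer containing KCl, MgCl2, BSA, DTT, tRNA and Tween-20, with no input, 200 uM small-molecule ligand, or an oligonucleotide input.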

[1] = input ligand: microRNA oligo, concentration not stated
[2] = Eterna round: R95, input ligand: FMN 200 uM
[3] = Eterna round: R95, input ligand: microRNA oligo, concentration not stated
[4] = Eterna round: R95, input ligand: none

Sequence	apparent KD of MS2 coat protein (input ligand: FMN 200 uM) [nM]	apparent KD of MS2 coat protein (input ligand: none) [nM]	apparent KD of MS2 coat protein [1] [nM]	apparent KD of MS2 coat protein [2] [nM]	apparent KD of MS2 coat protein [3] [nM]	apparent KD of MS2 coat protein [4] [nM]
AACAGUCUGGAGGAUAUGCUGGAUUAAUAUCUGGCAGAAGGCUUGACAUGAGGAUCACCCAUGUAAAUACUACC [Omei Ex6 A3] (Eterna round: R97, puzzle: Exclusion 6)	25.9	20.8				
AACCUGAGGCAAAGCUUUAGGUGUACAUGAGGAUCACCCAUGUAGGAUAUGGUAAGCAAAGCUUACCAGAAGGACAUAAUGAUG [Mat - Exclusion NG 3 - Mod of JL - D48] (Eterna round: R96, puzzle: Exclusion NG 3)	134	90.2	70.1			
ACCUCCGCGAAGGAUAUUAGCACAUUGACAGAUUGAGAAGGUCGCACAUGAGGAUCACCCAUGUGAGGUCAUCC [Eternabot (L1) Solution 82] (Eterna round: R97, puzzle: Exclusion 6)	19.3	21.5				
GCAGCGUAUGUAGGAUAUCGGUCAGUUUCUGAUCGAGAAGGACAUGAGGAUCACCCAUGUAUAUUCCGUCGUGAGACGGGCUGC [JL ENG1 3.69] (Eterna round: R96, puzzle: Exclusion NG 1)	23.6	18.4	14.3			
AUCUACCGAGCAGGAUAUCCAGGCACAUGAGGAUCACCCAUGUCAGGGAGAGAAGUUGUUUGCGUGGAGAAGGGCUAUAAAUUA [Isdiatte] (Eterna round: R96, puzzle: Exclusion NG 2)	314	162	163			
GAAUUAAUUAAUUAAUAAUACAUGAGGAUCACCCAUGUAGAUCCUACAUACAAGCUAAGUAGCUCGUCUUAUAAUUA [Stov1/2-A2] (Eterna round: R97, puzzle: Sensor, turn-off variant 1)	313	261				
UGCUGACGAGGAUAUACAUGAGGAUCACCCAUGUUGGUCAAGCGACUUCGGUCGCAAUGUAGAAGGCGUCAGCU [E3/8-A6] (Eterna round: R97, puzzle: Exclusion 3)	186	395				
CGUGACUGAGGAUAUCUAUAUUAUCACAUGAGGAUCACCCAUGUCCAGCGAAAGCUGGAGGGAGAAGGCAGUCACG [Fiskers Ex 5 - 28] (puzzle: Exclusion 5)				17.1	49.8	32.4
AAAUACGCUGAGGAUAUGCGGCGCACAAAAUAAGCAGAAGGCAGCACUUGAGGAUCACCCAAGUGGCCCGAGAA [Enusrees] (Eterna round: R97, puzzle: Exclusion 6)	15.5	8				
GCGAAAGCAACAAGUGAAAACAUGAGGAUCACCCAUGUCCUCAUUUGCUCGUCUUAUAAGCUAUGCGAAAGCAUAGC [Sensor 3, v1 - 10] (puzzle: Sensor v3, turn-off variant 1)				52.4	511	74.4
CUCCGGCGUGUAGGAUAUGGAUCCGAUUAGGAUCCAGAAGGACAUGAGGAUCACCCAUGUACAUGUAAACAGUCGUCACCGGGC [salish99_ExNG1_r04_206] (Eterna round: R96, puzzle: Exclusion NG 1)	75.9	18.1	14			
CUUUUGUGAGGAUAUUAUUAGUAAAUAAAUAAAAUUACUACUGAGAAGGCACAUGAGGAUCACCCAUGUUCCUC [salish99_ex4_r3_048] (puzzle: Exclusion 4)					28.8	
UAUUAGUUAGGAUAUACAUGAGGAUCACCCAUGUCACGGGUCCACUUGUCCUAUGCGUGUAGAAGGAGCGACCC [JL Ceriza mod 4] (puzzle: Exclusion 3)					19.2	
CUCUGUGCAAAGGAUAUGUGAACAGGUCUAAUAACAGAAGGUUGCACUUGAGGAUCACCCAAGUUAAAGGGACC [Ortebi] (Eterna round: R97, puzzle: Exclusion 6)	517	462				
ACAAGCUUAAUCAGUAUGAACAUGAGGAUCACCCAUGUAAAAGGGAAGACAAUUGGGUUAUUUAAAGCUCGUCUUAU [JR_STOV1_Sub016] (Eterna round: R97, puzzle: Sensor, turn-off variant 1)	57.6	67.2				
GAGUAGGUAGGAUAUACGAUAAUAUAGGGUAGAUAUAUAACACAUGAGGAUCACCCAUGUAGAAGGACCAGGAG [Mat - Exclusion 2 - Mod of my Tesla design - D63] (puzzle: Exclusion 2)				115	38.3	36.6
GCUGCUAGAGGAUAUACAUGAGGAUCACCCAUGUGAAAUUAUAGUGAGGAAAUGAAAAGUAGAAGGCUAGUAGA [Mod of Mat 16 - Jieux - Exclusion 3] (Eterna round: R97, puzzle: Exclusion 3)	381	36.2				
GGAUUCUCGCAAGGAUAUCGCUUACAUCCUAAGCGAGAAGGUGCUACCAACUUGAGGAUCACCCAAGUGACUUGGGCCUAAAUA [Mutated MS2 EX1.27] (Eterna round: R96, puzzle: Exclusion NG 1)	112	62.9	34.2			

Sequence	apparent KD of MS2 coat protein (input ligand: FMN 200 uM) [nM]	apparent KD of MS2 coat protein (input ligand: none) [nM]	apparent KD of MS2 coat protein [1] [nM]	apparent KD of MS2 coat protein [2] [nM]	apparent KD of MS2 coat protein [3] [nM]	apparent KD of MS2 coat protein [4] [nM]
AAUCCACAUGAGGAUCACCCAUGUCAGGAUAUCGCGCGCGCGUUUUCGGUCUUUCGCGCGAGAAGGGACGACUG (puzzle: Exclusion 1)					14.1	
UAGAUGGGAGGAUAUACGUAGAUGCGGAUUCGUGUGGUGCUACAUGAGGAUCACCCAUGUAGAAGGCCCGUCUU [JL-ex2-2.25 Mayanne mod] (puzzle: Exclusion 2)					15.6	
GUAUGUUAUGAGGAUAUCGGUGAACAUACACAUCGAGAAGGCAUGACAUGAGGAUCACCCAUGUCAAGGAUGAA [Exclusion 6 - B - 18:a] (puzzle: Exclusion 6)				34.1	16.9	18.3
AUCCGUUCUUAGGAUAUUUGAUAAGUCAUGUACGAAGAAGGAAGAACAUGAGGAUCACCCAUGUGGGACUUCGG [Eternabot (L2) Solution 12] (Eterna round: R97, puzzle: Exclusion 6)	29	25.9				
UCACCGCAAGGAUAUACUUGCGGUGAUGUUCGAAUCUUUCUACUUGAGGAUCACCCAAGUAGAAGGUGCGGUGA [jl-ex2.4.69 ViennaUCT mod] (Eterna round: R97, puzzle: Exclusion 2)	15.4	12.2				
GUGCGGUGAGGAUAUACGUAGGUGAAAAUCUGUGUGCUCCUACAUGAGGAUCACCCAUGUAGAAGGCAUGUCAC [LRO-Excl2-15] (puzzle: Exclusion 2)					14.7	
AUCGUGCAGCUUUGCUGUACGAGUACAUGAGGAUCACCCAUGUAGGAUAUGGUACGCUUUGCGUGCUAGAAGGAUAUGUGUAGG [JL EXNG3 1.36] (Eterna round: R96, puzzle: Exclusion NG 3)	49.1	50.3	30.7			
UGACGUCAUGUCAGGAUAUAGGCGAUGCGUGUCUUCUAGAAGGGACAUGAGGAUCACCCAUGUAAACUUUUGGU [Eternabot (L1) Solution 56] (Eterna round: R97, puzzle: Brourd's mod of Exclusion 4)	136	148				
CACCUGAAUACAGGAUAUCUUACAUGAGGAUCACCCAUGUAAUAAAUGAGAAUUUCGAAUGUAAUAGAGAAGGGUAGAUAAGGC [Ostracism 87 - Jieux - Exclusion NG 2] (Eterna round: R96, puzzle: Exclusion NG 2)	39.2	33.1	26.5			
UCAUACGUUGAGGAUAUCUCAGUUAGAAUAUUUAGAGAAGGCGAUACAUGAGGAUCACCCAUGUUUAUGGGCAU [Ex-6 Malc#6] (puzzle: Exclusion 6)				346	286	461
UAUUAACAAGCUAGAUCUUACAUGAGGAUCACCCAUGUGCUCGUCUUAUAAGGUACUGUGACGAAAGUCACGGUACC [Sensor 3, v1 - 77] (puzzle: Sensor v3, turn-off variant 1)				22.7	149	22.5
AAGAAGUAAGGAUAUGGCCGGGUCCCUGGGUUUGGACCCGGCUAGAAGGUACAUGAGGAUCACCCAUGUAAGAA [Excls4-IX] (puzzle: Exclusion 4)					13.1	
UUAAUGUGAGGAUAUCAGGUGUGCUAGAGAACUGGUACAUCUGAGAAGGCACAUGAGGAUCACCCAUGUUCUUC [Mat - Exclusion 4 - Mod of JL - D55] (puzzle: Exclusion 4)					36.8	
AGCGAGGCAGGAUAUACAUGAGGAUCACCCAUGUGCUUGCAUGGCGUGGGACGUCAACGUAGAAGGGCCAUGCC [EX3 #68] (Eterna round: R97, puzzle: Exclusion 3)	76.3	117				
UUUUAACAUGAGGAUCACCCAUGUGAGGAUAUCGAAAUUUAUAUUAAUAUUAUUAUUACGAGAAGGCACAUUUU [JMF 42] (puzzle: Exclusion 1)					69.3	
UUUUAACAUGAGGAUCACCCAUGUGAGGAUAUCGAAAUUUAUAUUUAUAUUAAUUUAUCGAGAAGGCACAUUUU [JMF 88] (puzzle: Exclusion 1)					166	
AAGUAGACAGUGAGGAUAUUGGUGGAAUGACACAUUAAGAAGGUACAUGAGGAUCACCCAUGUGGGUAAUGUCG [Brourd's EX4 #26] (Eterna round: R97, puzzle: Brourd's mod of Exclusion 4)	64.8	45.8				
